The results in this text go back to patent US20100260668A1 (published 2010).

Assay [1] has as its target T1, recombinant human HGF (human, UniProt P14210 32-728).
T1 construct: The target there is entered as this HGF; also called hepatocyte growth factor
Description: competition ELISA: DVD-Ig co-incubated with 2 nM soluble c-Met Fc on coated HGF (competitor c-Met Fc). Background: An ELISA detects its analyte on a solid surface through an enzyme-linked reagent.

Assay [2] deals with T2, VEGF (VEGF 1-165 aa, R&D Systems 293-VE-010) (UniProt P15692 27-191).
T2 construct: bought reagent; also called vascular endothelial growth factor
T2 sequence (P15692 other isoform, or with tags, fused parts or gaps limits assumed): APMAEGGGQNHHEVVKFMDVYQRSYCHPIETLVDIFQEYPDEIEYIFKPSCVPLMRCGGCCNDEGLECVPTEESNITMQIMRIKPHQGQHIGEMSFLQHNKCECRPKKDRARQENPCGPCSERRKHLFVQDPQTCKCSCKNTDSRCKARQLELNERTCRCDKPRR
Description: Direct bind ELISA, VEGF coated on plate; VEGF domain C-term., HC long/LC long.

The target in assay [3] is T2, VEGF (VEGF 1-165 aa, R&D Systems …). As to the kind of experiment: Direct bind ELISA, VEGF coated on plate; VEGF domain C-term., HC short/LC short.
For assay [4] the target is unchanged. As to the kind of experiment: Direct bind ELISA, VEGF coated on plate; VEGF domain C-term., HC long/LC short.
Assay [5] shares this target. Description: Direct bind ELISA, VEGF coated on plate; VEGF domain N-term., HC short/LC short.
Assay [6] shares this target. As to the kind of experiment: Direct bind ELISA, VEGF coated on plate; VEGF domain N-term., HC long/LC short.

T1 sequence (P14210 32-728 limits assumed): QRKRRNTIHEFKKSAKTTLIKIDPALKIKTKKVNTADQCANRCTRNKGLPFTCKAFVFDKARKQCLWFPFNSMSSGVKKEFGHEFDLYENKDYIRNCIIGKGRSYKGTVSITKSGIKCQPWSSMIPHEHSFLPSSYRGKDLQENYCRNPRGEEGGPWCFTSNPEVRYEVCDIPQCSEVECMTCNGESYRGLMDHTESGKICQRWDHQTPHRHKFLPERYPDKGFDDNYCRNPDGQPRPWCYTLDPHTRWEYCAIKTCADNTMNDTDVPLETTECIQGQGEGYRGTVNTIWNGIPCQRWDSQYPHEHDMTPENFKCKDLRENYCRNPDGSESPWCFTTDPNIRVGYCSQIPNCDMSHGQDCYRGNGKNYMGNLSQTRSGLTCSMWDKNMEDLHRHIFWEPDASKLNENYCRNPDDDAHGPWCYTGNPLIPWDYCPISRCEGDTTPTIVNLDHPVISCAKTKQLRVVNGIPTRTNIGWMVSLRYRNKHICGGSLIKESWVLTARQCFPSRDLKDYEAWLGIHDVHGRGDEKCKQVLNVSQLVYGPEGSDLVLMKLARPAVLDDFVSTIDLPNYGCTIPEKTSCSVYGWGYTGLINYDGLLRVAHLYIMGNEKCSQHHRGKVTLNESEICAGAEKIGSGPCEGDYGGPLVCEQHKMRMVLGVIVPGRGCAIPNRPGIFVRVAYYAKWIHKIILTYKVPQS

B1: DVD034 (HGF (seq. 1) N-terminal / RON (seq. 1) C-terminal DVD-Ig) (bispecific antibody, human IgG1, kappa)
heavy: not shown
light: DIQMTQSPSSVSASVGDRVTITCRASQGISSWLAWYQQKPGKAPNLLIYEASSLQSGVPSRFGGSGSGTDFTLTISSLQPEDFATYYCQQANGFPWTFGQGTKVEIKRTVAAPDVVMTQSPLSLPVTPGEPASISCRSSQSLLHSNGFNYVDWYLQKPGQSPHLLIYFGSYRASGVPDRFSGSGSGTDFTLKISRVEAEDVGVYYCMQALQTPPWTFGQGTKVEIRRTVAAPSVFIFPPSDEQLKSGTASVVCLLNNFYPREAKVQWKVDNALQSGNSQESVTEQDSKDSTYSLSSTLTLSKADYEKHKVYACEVTHQGLSSPVTKSFNRGEC
notes: also called DVD034H/DVD034L
B1: in assay [1], the IC50 (as a rule, the midpoint of a concentration-inhibition curve) amounted to 0.34 nM.

B2: DVD519 (bispecific antibody, human IgG1, kappa, lambda)
heavy: not shown
light: QAVVTQESALTTSPGETVTLTCRSSTGAVTTSNYANWVQEKPDHLFTGLIGGTNNRAPGVPARFSGSLIGDKAALTITGAQTEDEAIYFCALWYSNHWVFGGGTKLTVLGQPKAAPSVTLFPPDIQMTQSPSSLSASVGDRVTITCRASQDVSTAVAWYQQKPGKAPKLLIYSASFLYSGVPSRFSGSGSGTDFTLTISSLQPEDFATYYCQQSYTTPPTFGQGTKVEIKRTVAAPSVFIFPPSDEQLKSGTASVVCLLNNFYPREAKVQWKVDNALQSGNSQESVTEQDSKDSTYSLSSTLTLSKADYEKHKVYACEVTHQGLSSPVTKSFNRGEC
notes: DVD-Ig; N-term; AB073 (DLL4), C-term; AB070 (VEGF); HC linker long, LC linker long; also called DVD-Ig DVD519; DVD519H/DVD519L
Regarding B2, in assay [2], the half-maximal effective concentration (EC50) (usually the midpoint of the concentration-response curve) was 77.2 nM.

B3: DVD491 (bispecific antibody, human IgG1, kappa)
heavy: not shown
light: DIQMTQSSSYLSVSLGGRVTITCKASDHINNWLAWYQQKPGNAPRLLISGATSLETGVPSRFSGSGSGKDYTLSITSLQTEDVATYYCQQYWSIPLTFGAGTKLELKRTVAAPDIQMTQSPSSLSASVGDRVTITCRASQVIRRSLAWYQQKPGKAPKLLIYAASNLASGVPSRFSGSGSGTDFTLTISSLQPEDFATYYCQQSNTSPLTFGQGTKVEIKRTVAAPSVFIFPPSDEQLKSGTASVVCLLNNFYPREAKVQWKVDNALQSGNSQESVTEQDSKDSTYSLSSTLTLSKADYEKHKVYACEVTHQGLSSPVTKSFNRGEC
notes: DVD-Ig; N-term; AB072 (DLL4), C-term; AB071 (VEGF); HC linker short, LC linker short; also called DVD-Ig DVD491; DVD491H/DVD491L
In turn, B3 returned an EC50 in assay [3] of 1250 nM.

B4: DVD503 (bispecific antibody, human IgG1, kappa)
heavy: not shown
light: B3 light
notes: DVD-Ig; N-term; AB072 (DLL4), C-term; AB071 (VEGF); HC linker long, LC linker short; also called DVD-Ig DVD503; DVD503H/DVD503L
On to B4, for which the midpoint of the response in assay [4], the EC50, lay at 430 nM.

B5: DVD495 (bispecific antibody, human IgG1, kappa)
heavy: not shown
light: DIQMTQSSSYLSVSLGGRVTITCKASDHINNWLAWYQQKPGNAPRLLISGATSLETGVPSRFSGSGSGKDYTLSITSLQTEDVATYYCQQYWSIPLTFGAGTKLELKRTVAAPSVFIFPPDIQMTQSPSSLSASVGDRVTITCRASQDVSTAVAWYQQKPGKAPKLLIYSASFLYSGVPSRFSGSGSGTDFTLTISSLQPEDFATYYCQQSYTTPPTFGQGTKVEIKRTVAAPSVFIFPPSDEQLKSGTASVVCLLNNFYPREAKVQWKVDNALQSGNSQESVTEQDSKDSTYSLSSTLTLSKADYEKHKVYACEVTHQGLSSPVTKSFNRGEC
notes: DVD-Ig; N-term; AB072 (DLL4), C-term; AB070 (VEGF); HC linker long, LC linker long; also called DVD-Ig DVD495; DVD495H/DVD495L
Regarding B5, in assay [2], the EC50 amounted to 70 nM.

B6: DVD492 (bispecific antibody, human IgG1, kappa)
heavy: not shown
light: DIQMTQSPSSLSASVGDRVTITCRASQVIRRSLAWYQQKPGKAPKLLIYAASNLASGVPSRFSGSGSGTDFTLTISSLQPEDFATYYCQQSNTSPLTFGQGTKVEIKRTVAAPDIQMTQSSSYLSVSLGGRVTITCKASDHINNWLAWYQQKPGNAPRLLISGATSLETGVPSRFSGSGSGKDYTLSITSLQTEDVATYYCQQYWSIPLTFGAGTKLELKRTVAAPSVFIFPPSDEQLKSGTASVVCLLNNFYPREAKVQWKVDNALQSGNSQESVTEQDSKDSTYSLSSTLTLSKADYEKHKVYACEVTHQGLSSPVTKSFNRGEC
notes: DVD-Ig; N-term; AB071 (VEGF), C-term; AB072 (DLL4); HC linker short, LC linker short; also called DVD-Ig DVD492; DVD492H/DVD492L
In assay [5], B6 had a half-maximal effective concentration (EC50) of 8.42 nM.

B7: DVD489 (bispecific antibody, human IgG1, kappa, L234A L235A)
heavy: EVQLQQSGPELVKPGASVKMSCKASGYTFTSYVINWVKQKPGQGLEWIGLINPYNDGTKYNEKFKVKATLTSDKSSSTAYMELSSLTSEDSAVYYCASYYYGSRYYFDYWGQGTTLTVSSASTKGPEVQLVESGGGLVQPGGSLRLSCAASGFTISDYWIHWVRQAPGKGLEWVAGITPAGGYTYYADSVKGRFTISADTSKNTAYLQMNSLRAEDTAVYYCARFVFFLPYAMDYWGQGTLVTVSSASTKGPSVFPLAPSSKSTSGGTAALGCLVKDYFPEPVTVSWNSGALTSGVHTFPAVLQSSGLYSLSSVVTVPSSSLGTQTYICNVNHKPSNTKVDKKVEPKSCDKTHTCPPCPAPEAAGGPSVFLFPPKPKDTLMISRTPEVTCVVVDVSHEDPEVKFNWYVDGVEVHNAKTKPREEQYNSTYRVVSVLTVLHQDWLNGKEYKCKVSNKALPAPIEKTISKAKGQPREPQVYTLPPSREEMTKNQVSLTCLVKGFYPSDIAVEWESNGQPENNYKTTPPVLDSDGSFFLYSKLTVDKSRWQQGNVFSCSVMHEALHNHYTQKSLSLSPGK
light: DIQMTQSSSYLSVSLGGRVTITCKASDHINNWLAWYQQKPGNAPRLLISGATSLETGVPSRFSGSGSGKDYTLSITSLQTEDVATYYCQQYWSIPLTFGAGTKLELKRTVAAPDIQMTQSPSSLSASVGDRVTITCRASQDVSTAVAWYQQKPGKAPKLLIYSASFLYSGVPSRFSGSGSGTDFTLTISSLQPEDFATYYCQQSYTTPPTFGQGTKVEIKRTVAAPSVFIFPPSDEQLKSGTASVVCLLNNFYPREAKVQWKVDNALQSGNSQESVTEQDSKDSTYSLSSTLTLSKADYEKHKVYACEVTHQGLSSPVTKSFNRGEC
notes: DVD-Ig; N-term; AB072 (DLL4), C-term; AB070 (VEGF); HC linker short, LC linker short; also called DVD-Ig DVD489; DVD489H/DVD489L
B7 gave an EC50 in assay [3] of 181 nM.

B8: DVD501 (bispecific antibody, human IgG1, kappa)
heavy: not shown
light: B7 light
notes: DVD-Ig; N-term; AB072 (DLL4), C-term; AB070 (VEGF); HC linker long, LC linker short; also called DVD-Ig DVD501; DVD501H/DVD501L
The molecule B8 came in with an EC50 in assay [4] of 45.2 nM.

B9: DVD514 (bispecific antibody, human IgG1, lambda)
heavy: not shown
light: DIQMTQSPSSLSASVGDRVTITCRASQDVSTAVAWYQQKPGKAPKLLIYSASFLYSGVPSRFSGSGSGTDFTLTISSLQPEDFATYYCQQSYTTPPTFGQGTKVEIKRTVAAPQAVVTQESALTTSPGETVTLTCRSSTGAVTTSNYANWVQEKPDHLFTGLIGGTNNRAPGVPARFSGSLIGDKAALTITGAQTEDEAIYFCALWYSNHWVFGGGTKLTVLGQPKAAPSVTLFPPSSEELQANKATLVCLISDFYPGAVTVAWKADSSPVKAGVETTTPSKQSNNKYAASSYLSLTPEQWKSHRSYSCQVTHEGSTVEKTVAPTECS
notes: DVD-Ig; N-term; AB070 (VEGF), C-term; AB073 (DLL4); HC linker short, LC linker short; also called DVD-Ig DVD514; DVD514H/DVD514L
B9: a half-maximal effect in assay [5] (EC50) was put at 67.4 nM.

B10: DVD526 (bispecific antibody, human IgG1, lambda)
heavy: not shown
light: B9 light
notes: DVD-Ig; N-term; AB070 (VEGF), C-term; AB073 (DLL4); HC linker long, LC linker short; also called DVD-Ig DVD526; DVD526H/DVD526L
In the case of B10, a half-maximal effect in assay [6] (EC50) was put at 96.2 nM.

B11: DVD513 (bispecific antibody, human IgG1, kappa)
heavy: not shown
light: QAVVTQESALTTSPGETVTLTCRSSTGAVTTSNYANWVQEKPDHLFTGLIGGTNNRAPGVPARFSGSLIGDKAALTITGAQTEDEAIYFCALWYSNHWVFGGGTKLTVLGQPKAAPDIQMTQSPSSLSASVGDRVTITCRASQDVSTAVAWYQQKPGKAPKLLIYSASFLYSGVPSRFSGSGSGTDFTLTISSLQPEDFATYYCQQSYTTPPTFGQGTKVEIKRTVAAPSVFIFPPSDEQLKSGTASVVCLLNNFYPREAKVQWKVDNALQSGNSQESVTEQDSKDSTYSLSSTLTLSKADYEKHKVYACEVTHQGLSSPVTKSFNRGEC
notes: DVD-Ig; N-term; AB073 (DLL4), C-term; AB070 (VEGF); HC linker short, LC linker short; also called DVD-Ig DVD513; DVD513H/DVD513L
B11 came in with an EC50 in assay [3] of 58.5 nM.

B12: DVD525 (bispecific antibody, human IgG1, kappa)
heavy: not shown
light: B11 light
notes: DVD-Ig; N-term; AB073 (DLL4), C-term; AB070 (VEGF); HC linker long, LC linker short; also called DVD-Ig DVD525; DVD525H/DVD525L
In assay [4], B12 gave an EC50 of 21.8 nM.

B13: DVD490 (bispecific antibody, human IgG1, kappa)
heavy: not shown
light: DIQMTQSPSSLSASVGDRVTITCRASQDVSTAVAWYQQKPGKAPKLLIYSASFLYSGVPSRFSGSGSGTDFTLTISSLQPEDFATYYCQQSYTTPPTFGQGTKVEIKRTVAAPDIQMTQSSSYLSVSLGGRVTITCKASDHINNWLAWYQQKPGNAPRLLISGATSLETGVPSRFSGSGSGKDYTLSITSLQTEDVATYYCQQYWSIPLTFGAGTKLELKRTVAAPSVFIFPPSDEQLKSGTASVVCLLNNFYPREAKVQWKVDNALQSGNSQESVTEQDSKDSTYSLSSTLTLSKADYEKHKVYACEVTHQGLSSPVTKSFNRGEC
notes: DVD-Ig; N-term; AB070 (VEGF), C-term; AB072 (DLL4); HC linker short, LC linker short; also called DVD-Ig DVD490; DVD490H/DVD490L
B13 gave a concentration giving a half-maximal response (EC50) in assay [5] of 6.7 nM.

B14: DVD497 (bispecific antibody, human IgG1, kappa)
heavy: not shown
light: DIQMTQSSSYLSVSLGGRVTITCKASDHINNWLAWYQQKPGNAPRLLISGATSLETGVPSRFSGSGSGKDYTLSITSLQTEDVATYYCQQYWSIPLTFGAGTKLELKRTVAAPSVFIFPPDIQMTQSPSSLSASVGDRVTITCRASQVIRRSLAWYQQKPGKAPKLLIYAASNLASGVPSRFSGSGSGTDFTLTISSLQPEDFATYYCQQSNTSPLTFGQGTKVEIKRTVAAPSVFIFPPSDEQLKSGTASVVCLLNNFYPREAKVQWKVDNALQSGNSQESVTEQDSKDSTYSLSSTLTLSKADYEKHKVYACEVTHQGLSSPVTKSFNRGEC
notes: DVD-Ig; N-term; AB072 (DLL4), C-term; AB071 (VEGF); HC linker long, LC linker long; also called DVD-Ig DVD497; DVD497H/DVD497L
The molecule B14 registered an EC50 in assay [2] of 858 nM.
